Measurements: US20100298541A1 (published 2010)

molecular target: T1, TRAIL-R2/Fc fusion protein (R & D Systems) (UniProt O14763 54-182, limits assumed); experiment: TRAIL-R2 phage ELISA
T1 construct: not shown: Fc part of the bought fusion; captured with anti-human IgG Fc antibody
T1 sequence (O14763 54-182 limits assumed): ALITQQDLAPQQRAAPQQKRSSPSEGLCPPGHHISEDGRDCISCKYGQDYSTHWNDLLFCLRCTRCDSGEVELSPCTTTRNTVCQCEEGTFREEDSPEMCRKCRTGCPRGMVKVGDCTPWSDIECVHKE

Binder	binding result
1H05 (designed binder) IEVKDVTDTTALITWSPGMFDQVRTGCELTYGIKDVPGDRTTIDLGKYWERYSIGNLKPDTEYEVSLICRNQYGQHQSKETFTT	binds
1C12 (designed binder, also called monomeric 1C12) IEVKDVTDTTALITWAKPEKWDGSIYGCELTYGIKDVPGDRTTIDLNSRHTAYSIGNLKPDTEYEVSLICFTPYGAKSNPAKETFTT	binds
2A11 (designed binder) IEVKDVTDTTALITWSPPFRAGHVTGCELTYGIKDVPGDRTTIDLVTARCQYSIGNLKPDTEYEVSLICTTGNGLRSNPAKETFTT	binds
3B11 (designed binder) IEVKDVTDTTALITWSPCQLLALITGCELTYGIKDVPGDRTTIDLNSRHYHYSIGNLKPDTEYEVSLICYTSTGQRSNPAKETFTT	binds
1C06 (designed binder) IEVKDVTDTTALITWSPRMYTWIQTGCELTYGIKDVPGDRTTIDLTHLSGSYSIGNLKPDTEYEVSLICLKLTRTHISKETFTT	binds
2B04 (designed binder, also called 2B4) IEVKDVTDTTALITWAPPMLTDSEINGCELTYGIKDVPGDRTTIDLTSSYWSYSIGNLKPDTEYEVSLICSTLRRNAISKETFTT	binds
2A12 (designed binder) IEVKDVTDTTALITWSPCCQEFTLTGCELTYGIKDVPGDRTTIDLHNHHHHYSIGNLKPDTEYEVSLICITDAGNKSNPAKETFTT	binds
1D8 (designed binder) IEVKDVTDTTALITWSPCQMLSSLTGCELTYGIKDVPGDRTTIDLNIERPKYSIGNLKPDTEYEVSLICFTMTGYRSNPAKETFTT	binds
1B04 (designed binder) IEVKDVTDTTALITWSPSHGVESSTGCELTYGIKDVPGDRTTIDLHGLQRVYSIGNLKPDTEYEVSLICAKICGHLVSKETFTT	binds
1E03 (designed binder, also called 1E3) IEVKDVTDTTALITWAAPFFGSSYISGCELTYGIKDVPGDRTTIDLHYYVTRYSIGNLKPDTEYEVSLICVNLSGHMPSKETFTT	binds
2F08 (designed binder) IEVKDVTDTTALITWSHAGGIRIGCELTYGIKDVPGDRTTIDLHVWQVYYSIGNLKPDTEYEVSLICMTPYLLGNPAKETFTT	binds
1A03 (designed binder) IEVKDVTDTTALITWAPPPFSNSCIIGCELTYGIKDVPGDRTTIDLRPGRASYSIGNLKPDTEYEVSLICSTGTGLPSNPAKETFTT	binds
1B12 (designed binder) IEVKDVTDTTALITWAKPRQGGSNISGCELTYGIKDVPGDRTTIDLYHKGLHYSIGNLKPDTEYEVSLICPKMTGYTYSKETFTT	binds
2F02 (designed binder) IEVKDVTDTTALITWSPSRGGTSLTGCELTYGIKDVPGDRTTIDLDQVRATYSIGNLKPDTEYEVSLICHTNSGQPSNPAKETFTT	binds
2D3 (designed binder) IEVKDVTDTTALITWSPGGFQKITTGCELTYGIKDVPGDRTTIDLVNRRNHYSIGNLKPDTEYEVSLICLTYKARAISKETFTT	binds
1E05 (designed binder) IEVKDVTDTTALITWSPCSPCQLVTGCELTYGIKDVPGDRTTIDLSCTRAKYSIGNLKPDTEYEVSLICINKLGDTSNPAKETFTT	binds
2G03 (designed binder) IEVKDVTDTTALITWSPGPLLRHTTGCELTYGIKDVPGDRTTIDLRPIPRAYSIGNLKPDTEYEVSLICRNRPQQSNPAKETFTT	binds
1G11 (designed binder) IEVKDVTDTTALITWSWAQANPGGCELTYGIKDVPGDRTTIDLWHSITFYSIGNLKPDTEYEVSLICKTKVQSSNPAKETFTT	binds
1C10 (designed binder) IEVKDVTDTTALITWSPCCPYDRYTGCELTYGIKDVPGDRTTIDLQSSRSHYSIGNLKPDTEYEVSLICITTFGHVSNPAKETFTT	binds

molecular target: T1, TRAIL-R2/Fc fusion protein (R & D …); experiment: TRAIL-R2 phage ELISA; remark: another data set of the same source

Binder	binding result
2H6 (designed binder) IEVKDVTDTTALITWATPSVFDSHIEGCELTYGIKDVPGDRTTIDLTEDENQYSIGNLKPDTEYEVSLICWKHHGDAWSKETFTT	binds
6F11 (designed binder) IEVKDVTDTTALITWSPSVARMLETGCELTYGIKDVPGDRTTIDLTEDENQYSIGNLKPDTEYEVSLICITLCGRGVSKETFTT	binds
6C7 (designed binder, Lower case q is a TAG codon read as glutamine) IEVKDVTDTTALITWAKPMSCSGYIQGCELTYGIKDVPGDRTTIDLTEDENQYSIGNLKPDTEYEVSLICAKLTGWLCSKETFTT	binds
7G11 (designed binder) IEVKDVTDTTALITWAKPSIVNGFISGCELTYGIKDVPGDRTTIDLTEDENQYSIGNLKPDTEYEVSLICDKCFGAMKSKETFTT	binds
10D9 (designed binder, Lower case q in the BC loop is a TAG codon read as glutamine in the suppressor strain) IEVKDVTDTTALITWSPPLFCCQKTGCELTYGIKDVPGDRTTIDLTEDENQYSIGNLKPDTEYEVSLICFKLTGFLYSKETFTT	binds
2F4 (designed binder) IEVKDVTDTTALITWSPCIMVCLRTGCELTYGIKDVPGDRTTIDLTEDENQYSIGNLKPDTEYEVSLICRRGDMSGAPAKETFTT	binds
5B10 (designed binder) IEVKDVTDTTALITWSPCLFVCLRTGCELTYGIKDVPGDRTTIDLTEDENQYSIGNLKPDTEYEVSLICRRGDMSGAPAKETFTT	binds
8B3 (designed binder) IEVKDVTDTTALITWSPPEYAFYYTGCELTYGIKDVPGDRTTIDLTEDENQYSIGNLKPDTEYEVSLICVKNCGLFSNPAKETFTT	binds

molecular target: T1, TRAIL-R2/Fc fusion protein (R & D …); experiment: Attana biosensor, TRAIL-R2 chip
Description: A qualitative comparison of binding by monomeric 1C12, 1C12-Fc and 1C12-Cκ/1C12-IGHG1 proteins was performed by injecting samples of each of these proteins over a TRAIL-R2 chip on an Attana biosensor instrument.

Binder	binding result
D1-Fc (Fc fusion, not shown: hinge and Fc region of human IgG1) IEVKDVTDTTALITWSPGERIWMFTGCELTYGIKDVPGDRTTIDLTEDENQYSIGNLKPDTEYEVSLICPNYERISNPAKETFTTGA	no binding
D1-Cκ/D1-IGHG1 (other, Control two chain tetravalent construct of D1; not shown: human C-kappa region (constant region of an antibody kappa light chain); heavy chain constant region of human IgG1 (IGHG1)) light: IEVKDVTDTTALITWSPGERIWMFTGCELTYGIKDVPGDRTTIDLTEDENQYSIGNLKPDTEYEVSLICPNYERISNPAKETFTTGGGTPT heavy: IEVKDVTDTTALITWSPGERIWMFTGCELTYGIKDVPGDRTTIDLTEDENQYSIGNLKPDTEYEVSLICPNYERISNPAKETFTTGGGTPT	no binding
